{
  "source": "paper PMC2841749",
  "molecular_target": "native CTF cleaved from full-length rCav2.1 proteins",
  "experiment": "SDS-PAGE under mildly denaturing conditions with immunoblot",
  "data": [
    {"substance": "native CTF cleaved from full-length rCav2.1 proteins", "values": [
      {"measurement": "stoichiometry N", "result": 2}
    ]}
  ]
}
